Laboratory results published in patent publication US20080318839A1.

Assays:
ER-VP64 (mouse) = ER-VP64 (mouse) (UniProt P19785); assay: cell-based or functional assay
Cf2-PBD-VP64 (human) = Cf2-PBD-VP64 (human) (UniProt P06401); assay: cell-based or functional assay
Chain of Cf2-PBD-VP64 (human) (P06401 640-914): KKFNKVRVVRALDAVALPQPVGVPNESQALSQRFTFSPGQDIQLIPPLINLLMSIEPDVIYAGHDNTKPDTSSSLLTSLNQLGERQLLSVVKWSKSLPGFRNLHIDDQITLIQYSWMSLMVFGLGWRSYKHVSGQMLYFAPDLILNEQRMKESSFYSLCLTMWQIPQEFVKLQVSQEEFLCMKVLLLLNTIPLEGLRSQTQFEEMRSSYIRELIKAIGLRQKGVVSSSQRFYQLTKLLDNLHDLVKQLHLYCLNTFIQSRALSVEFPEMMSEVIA

Chain of ER-VP64 (mouse) (P19785 282-599 G525R): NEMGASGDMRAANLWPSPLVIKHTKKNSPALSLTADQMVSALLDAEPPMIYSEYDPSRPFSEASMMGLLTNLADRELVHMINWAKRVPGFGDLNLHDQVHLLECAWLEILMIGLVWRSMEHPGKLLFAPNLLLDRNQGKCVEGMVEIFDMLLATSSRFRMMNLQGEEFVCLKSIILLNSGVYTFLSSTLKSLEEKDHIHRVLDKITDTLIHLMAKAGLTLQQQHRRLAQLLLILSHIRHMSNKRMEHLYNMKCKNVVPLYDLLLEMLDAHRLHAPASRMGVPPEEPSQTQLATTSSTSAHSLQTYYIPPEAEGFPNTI
Chain of C7-PBD-VP64 (P06401 640-914): as the sequence (P06401 640-914) above

E2C-ER (from UniProt P19785 282-599)
luciferase assay, erbB-2 promoter activity in HeLa cells, with Tamoxifen (ER-VP64 (mouse)): 3 fold
tamoxifen-dependent activation of the erbB-2 promoter (luciferase) (ER-VP64 (mouse)): 5.3 fold

C7-PBD-VP64 (from UniProt P06401 640-914)
ligand-dependent change in transcription, C7-Cf2 TATA luciferase reporter (Cf2-PBD-VP64 (human)): 2 fold
